Source: paper PMC6299077 (Nature Communications, 2018)

Molecular target: the molecule itself
Assay: SEC; […] (~2.7–27 μM), […] (pH 4.4–5.6); […]

B1: tHN of BoNT/A1 (beltless translocation domain of botulinum neurotoxin A1, residues K547–K871) (domain or fragment)
chain: KYTMFHYLRAQEFEHGKSRIALTNSVNEALLNPSRVYTFFSSDYVKKVNKATEAAMFLGWVEQLVYDFTDETSEVSTTDKIADITIIIPYIGPALNIGNMLYKDDFVGALIFSGAVILLEFIPEIAIPVLGTFALVSYIANKVLTVQTIDNALSKRNEKWDEVYKYIVTNWLAKVNTQIDLIRKKMKEALENQAEATKAIINYQYNQYTEEEKNNINFNIDDLSSKLNESINKAMININKFLNQCSVSYLMNSMIPYGVKRLEDFDASLKDALLKYIYDNRGTLIGQVDRLKDKVNNTLSTDIPFQLSKYVDNQRLLSTFTEYIK
binding result: binds
